Source: publication PMC8866119 (Nature, 2021)

What follows are binders tested against SARS-CoV-2 Omicron (B.1.1.529) RBD (SARS-CoV-2 Omicron B.1.1.529 (BA.1), strain).

Binder | binding result
BD-801 (antibody, V domains shown) VH: DVQLVESGGGLVQPGGSRRLSCAASGFMFSSYWMNWVRQAPGKGLEWVASIKEDGSEKYYVDSVKGRFTISRDNAKNSLFLQMNSLRAEDTAVYYCARKCRGYYDRSGYYYKCAFDIWGQGTMVTVSS VL: PYVLTQPPSVSVAPGKTARITCGGNNLGTNSVHWYQQKPGQAPVLVMYYDSDRPSGIPERFSGSNSGNTATLTISRVDAGDEADYYCQVWDSSSDHWVFGGGTKLTVL | binds
BD55-5226 (antibody, V domains shown) VH: EVQLVESGGGLVKPGGSLRLSCAASGFTFSSYSMNWVRQAPGKGLEWVSSISMTSSYRHYADSVRGRFTISRDNANNSLFLQMNSLRAEDTAVYFCARDSNLRTGDANDYWGQGTLVTVSS VL: not shown | binds
BD55-1237 (antibody, V domains shown) VH: QVQLVESGGGVVQPGRSLRLSCATSDFTSNTYGIHWVRQAPGKGLEWVAVIWSDGSHEYYADSVKGRFTISRDNSKNTVYLQMASLRPEDTALYYCAKSPWLRGSFDVWGQGTVVPVSS VL: NFLLTQPHSVSESPGKTVTISCSGSSGYIASNYVQWYQQRPGSAPIVVMYEDNQRPSGVPDRFSGSIDSSSNSASLTISGLKTEDEADYYCQSYDSDNRAWVFGGGTKLTVL | binds
BD55-5259 (antibody, V domains shown) VH: QITLKESGPTLVKPTQTLTLTCTFSGFSLTMPEVGVAWVRQPPGKALEWLALIYGDDNKRYSPSLESRLTITKDSSKNQVVLTMTNLDSVDTATYYCARRKFLWDSDPVAFDYWGLGTLVIVSS VL: DIVMTQTPLSLPVTLGQPASISCRSSQSLVHIDGNIYLSWLQQRPGQPPRLLIYKISNRFSGVPDRFSGSGSGTDFTLKISRVEAEDVGVYYCMQATQFPHEMYTFGQGTKLEIR | binds
BD-708 (antibody, V domains shown) VH: QVQLVESGGGVVQPGRSLRLSCAASGFTLSNYAMHWVRQAPGTGLEWVAVISDDGSIKFYADSVKGRFTISRDNSKNTLYLQMNSLRAEDTAVYYCARDGDDSSGYFFDYWGQGTLVTVSS VL: DIQMTQSPSSLSASVGDRVTITCRASQGINNFLAWYQQKPGKAPKLLLYSASRLESGVPSRFSGSGSGTDYTLTISSLQPEDFATYYCQQYYSTLALTFGGGTKVEIK | binds
COVA1-16 (antibody, V domains shown) VH: QVQLVQSGAEVKKPGASVKVSCKASGYTFTSYYMHWVRQAPGQGLEWMGIINSSGGSTSYAQKFQGRVTMTRDTSTSTVYMELSSLRSEDTAVYYCARPPRNYYDRSGYYQRAEYFQHWGQGTLVTVSS VL: DIQLTQSPSSLSASVGDRVTITCQASQDISNYLNWYQQRPGKAPKLLIYDASNLETGVPSRFSGSGSGTDFTFTISSLQPEDIATYYCQQYDNPPLTFGGGTKLEIK | binds
COV2-2828 (antibody, V domains shown) VH: EVQLVESGGGLVKPGGSLRLSCAASGFTFRDYSMNWVRQAPGKGLEWVSSISSGGSYIYYADSVKGRFTISRDNAKNSLYLQMNSLRAEDTAVYYCARGGSILWWLIDYWGQGTLVTVSS VL: NFMLTQPHSVSESPGKTVTISCTGSSGSIASNYVQWYQQRPGSAPTTVIYEDNQRPSGVPDRFSGSIDSSSNSASLTISGLKTEDEADYYCQSYDSTSRVVFGGGTKLTVL | binds
DH1045 (antibody, V domains shown) VH: QLQLQESGPGLVKPSETLSLTCTVSGGSISSSGYYWGWIRQPPGKGLEWIGTIYYGGSTYYSPSLKSRVTISVDTSKNQFSLKLSSVTAADTAVYYCASQQWLRGNFDYWGQGTLVTVSS VL: NFMLTQPHSVSESPGKTVTISCTGSSGSIASNYVQWYQQRPGSAPTTVIYEDNQRPSGVPDRFSGSIDSSSNSASLTISGLKTEDEADYYCQSYDSSTYWVFGGGTKLTVL | binds
DH1047 (antibody, V domains shown) VH: QVQLVQSGAEVKKPGASVQVSCQASANTFTNHYIHWVRQAPGQGLEWMGIIYPTGGNTIYAQGFQGRVTMTRDTSLNTIYLELSSLRSEDTAVYYCARDVRVDDSWSGYDLLSGGTYFDYWGQGTLVTVSS VL: not shown | binds
BD55-3304 (antibody, V domains shown) VH: QVQLVESGGGVVQPERSLRLSCAASGFIFSNYGMHWVRQAPGKGLEWVALIWYDGSNRYYADSVKGRFTISRDNSRNTLYLQMNSLRAEDTAMYYCAKSALRGYSGYDFFSRVSDEYYFDNWGQGTLVTVSS VL: DIVMTQSPDSLAVSLGERATISCKSSQSVLYSSNNQNYLAWYQQKPGQPPKLLIKWASTRESGVPDRFSGSGSGTDFTLTITSLQAEDVAVYYCQQYFDTPHFGQGTKLEIK | binds
BD55-5267 (antibody, V domains shown) VH: QVQLQESGPGLVKPSGTLSLTCAVSGGSISSSNWWSWVRQPPGKGLEWIGEIYHSGSTNYNPSLKSRVTISVDKSKNKFSLKLSSVTAADTAVYFCARAGWIESGYDAFVGYFDYWGQGTLVTVSS VL: DIQMTQSPSSLSASVGDRVTITCRASQGISSSLAWYQQKPGKAPDLLLYAASGLESGVPSRFSGSGSGTDFTLSISSLQPEDFATYYCQQYYSPPRTFGQGTKLEIK | binds
